B1: NFATC1 (protein, UniProt O95644 1-943, looked up)
Nuclear factor of activated …: MPSTSFPVPSKFPLGPAAAVFGRGETLGPAPRAGGTMKSAEEEHYGYASSNVSPALPLPTAHSTLPAPCHNLQTSTPGIIPPADHPSGYGAALDGGPAGYFLSSGHTRPDGAPALESPRIEITSCLGLYHNNNQFFHDVEVEDVLPSSKRSPSTATLSLPSLEAYRDPSCLSPASSLSSRSCNSEASSYESNYSYPYASPQTSPWQSPCVSPKTTDPEEGFPRGLGACTLLGSPRHSPSTSPRASVTEESWLGARSSRPASPCNKRKYSLNGRQPPYSPHHSPTPSPHGSPRVSVTDDSWLGNTTQYTSSAIVAAINALTTDSSLDLGDGVPVKSRKTTLEQPPSVALKVEPVGEDLGSPPPPADFAPEDYSSFQHIRKGGFCDQYLAVPQHPYQWAKPKPLSPTSYMSPTLPALDWQLPSHSGPYELRIEVQPKSHHRAHYETEGSRGAVKASAGGHPIVQLHGYLENEPLMLQLFIGTADDRLLRPHAFYQVHRITGKTVSTTSHEAILSNTKVLEIPLLPENSMRAVIDCAGILKLRNSDIELRKGETDIGRKNTRVRLVFRVHVPQPSGRTLSLQVASNPIECSQRSAQELPLVEKQSTDSYPVVGGKKMVLSGHNFLQDSKVIFVEKAPDGHHVWEMEAKTDRDLCKPNSLVVEIPPFRNQRITSPVHVSFYVCNGKRKRSQYQRFTYLPANVPIIKTEPTDDYEPAPTCGPVSQGLSPLPRPYYSQQLAMPPDPSSCLVAGFPPCPQRSTLMPAAPGVSPKLHDLSPAAYTKGVASPGHCHLGLPQPAGEAPAVQDVPRPVATHPGSPGQPPPALLPQQVSAPPSSSCPPGLEHSLCPSSPSPPLPPATQEPTCLQPCSPACPPATGRPQHLPSTVRRDESPTAGPRLLPEVHEDGSPNLAPIPVTVKREPEELDQLYLDDVNEIIRNDLSSTSTHS
B2: NFIL3 (protein, UniProt Q16649 1-462, looked up)
Nuclear factor …: MQLRKMQTVKKEQASLDASSNVDKMMVLNSALTEVSEDSTTGEELLLSEGSVGKNKSSACRRKREFIPDEKKDAMYWEKRRKNNEAAKRSREKRRLNDLVLENKLIALGEENATLKAELLSLKLKFGLISSTAYAQEIQKLSNSTAVYFQDYQTSKSNVSSFVDEHEPSMVSSSCISVIKHSPQSSLSDVSEVSSVEHTQESSVQGSCRSPENKFQIIKQEPMELESYTREPRDDRGSYTASIYQNYMGNSFSGYSHSPPLLQVNRSSSNSPRTSETDDGVVGKSSDGEDEQQVPKGPIHSPVELKHVHATVVKVPEVNSSALPHKLRIKAKAMQIKVEAFDNEFEATQKLSSPIDMTSKRHFELEKHSAPSMVHSSLTPFSVQVTNIQDWSLKSEHWHQKELSGKTQNSFKTGVVEMKDSGYKVSDPENLYLKQGIANLSAEVVSLKRLIATQPISASDSG
B3: NFKBIA (protein, UniProt P25963 1-317, looked up)
NF-kappa-B inhibitor alpha: MFQAAERPQEWAMEGPRDGLKKERLLDDRHDSGLDSMKDEEYEQMVKELQEIRLEPQEVPRGSEPWKQQLTEDGDSFLHLAIIHEEKALTMEVIRQVKGDLAFLNFQNNLQQTPLHLAVITNQPEIAEALLGAGCDPELRDFRGNTPLHLACEQGCLASVGVLTQSCTTPHLHSILKATNYNGHTCLHLASIHGYLGIVELLVSLGADVNAQEPCNGRTALHLAVDLQNPDLVSLLLKCGADVNRVTYQGYSPYQLTWGRPSTRIQQQLGQLTLENLQMLPESEDEESYDTESEFTEFTEDELPYDDCVFGGQRLTL
B4: NEUROG3 (protein, UniProt Q9Y4Z2 1-214, looked up)
Neurogenin-3: MTPQPSGAPTVQVTRETERSFPRASEDEVTCPTSAPPSPTRTRGNCAEAEEGGCRGAPRKLRARRGGRSRPKSELALSKQRRSRRKKANDRERNRMHNLNSALDALRGVLPTFPDDAKLTKIETLRFAHNYIWALTQTLRIADHSLYALEPPAPHCGELGSPGGSPGDWGSLYSPVSQAGSLSPAASLEERPGLLGATFSACLSPGSLAFSDFL
B5: NEUROG2 (protein, UniProt Q9H2A3 1-272, looked up)
Neurogenin-2: MFVKSETLELKEEEDVLVLLGSASPALAALTPLSSSADEEEEEEPGASGGARRQRGAEAGQGARGGVAAGAEGCRPARLLGLVHDCKRRPSRARAVSRGAKTAETVQRIKKTRRLKANNRERNRMHNLNAALDALREVLPTFPEDAKLTKIETLRFAHNYIWALTETLRLADHCGGGGGGLPGALFSEAVLLSPGGASAALSSSGDSPSPASTWSCTNSPAPSSSVSSNSTSPYSCTLSPASPAGSDMDYWQPPPPDKHRYAPHLPIARDCI
B6: NFATX (protein, UniProt Q12968 2-1075, looked up)
Nuclear factor of activated …: TTANCGAHDELDFKLVFGEDGAPAPPPPGSRPADLEPDDCASIYIFNVDPPPSTLTTPLCLPHHGLPSHSSVLSPSFQLQSHKNYEGTCEIPESKYSPLGGPKPFECPSIQITSISPNCHQELDAHEDDLQINDPEREFLERPSRDHLYLPLEPSYRESSLSPSPASSISSRSWFSDASSCESLSHIYDDVDSELNEAAARFTLGSPLTSPGGSPGGCPGEETWHQQYGLGHSLSPRQSPCHSPRSSVTDENWLSPRPASGPSSRPTSPCGKRRHSSAEVCYAGSLSPHHSPVPSPGHSPRGSVTEDTWLNASVHGGSGLGPAVFPFQYCVETDIPLKTRKTSEDQAAILPGKLELCSDDQGSLSPARETSIDDGLGSQYPLKKDSCGDQFLSVPSPFTWSKPKPGHTPIFRTSSLPPLDWPLPAHFGQCELKIEVQPKTHHRAHYETEGSRGAVKASTGGHPVVKLLGYNEKPINLQMFIGTADDRYLRPHAFYQVHRITGKTVATASQEIIIASTKVLEIPLLPENNMSASIDCAGILKLRNSDIELRKGETDIGRKNTRVRLVFRVHIPQPSGKVLSLQIASIPVECSQRSAQELPHIEKYSINSCSVNGGHEMVVTGSNFLPESKIIFLEKGQDGRPQWEVEGKIIREKCQGAHIVLEVPPYHNPAVTAAVQVHFYLCNGKRKKSQSQRFTYTPVLMKQEHREEIDLSSVPSLPVPHPAQTQRPSSDSGCSHDSVLSGQRSLICSIPQTYASMVTSSHLPQLQCRDESVSKEQHMIPSPIVHQPFQVTPTPPVGSSYQPMQTNVVYNGPTCLPINAASSQEFDSVLFQQDATLSGLVNLGCQPLSSIPFHSSNSGSTGHLLAHTPHSVHTLPHLQSMGYHCSNTGQRSLSSPVADQITGQPSSQLQPITYGPSHSGSATTASPAASHPLASSPLSGPPSPQLQPMPYQSPSSGTASSPSPATRMHSGQHSTQAQSTGQGGLSAPSSLICHSLCDPASFPPDGATVSIKPEPEDREPNFATIGLQDITLDDVNEIIGRDMSQISVSQGAGVSRQAPLPSPESLDLGRSDGL
B7: ATF2/CRE-BP (protein, UniProt P15336 1-505, looked up)
Cyclic AMP-dependent …: MKFKLHVNSARQYKDLWNMSDDKPFLCTAPGCGQRFTNEDHLAVHKHKHEMTLKFGPARNDSVIVADQTPTPTRFLKNCEEVGLFNELASPFENEFKKASEDDIKKMPLDLSPLATPIIRSKIEEPSVVETTHQDSPLPHPESTTSDEKEVPLAQTAQPTSAIVRPASLQVPNVLLTSSDSSVIIQQAVPSPTSSTVITQAPSSNRPIVPVPGPFPLLLHLPNGQTMPVAIPASITSSNVHVPAAVPLVRPVTMVPSVPGIPGPSSPQPVQSEAKMRLKAALTQQHPPVTNGDTVKGHGSGLVRTQSEESRPQSLQQPATSTTETPASPAHTTPQTQSTSGRRRRAANEDPDEKRRKFLERNRAAASRCRQKRKVWVQSLEKKAEDLSSLNGQLQSEVTLLRNEVAQLKQLLLAHKDCPVTAMQKKSGYHTADKDDSSEDISVPSSPHTEAIQHSSVSTSNGVSSTSKAEAVATSVLTQMADQSTEPALSQIVMAPSSQSQPSGS
B8: NFKBIB (protein, UniProt Q15653 1-356, looked up)
NF-kappa-B inhibitor beta: MAGVACLGKAADADEWCDSGLGSLGPDAAAPGGPGLGAELGPGLSWAPLVFGYVTEDGDTALHLAVIHQHEPFLDFLLGFSAGTEYMDLQNDLGQTALHLAAILGETSTVEKLYAAGAGLCVAERRGHTALHLACRVGAHACARALLQPRPRRPREAPDTYLAQGPDRTPDTNHTPVALYPDSDLEKEEEESEEDWKLQLEAENYEGHTPLHVAVIHKDVEMVRLLRDAGADLDKPEPTCGRSPLHLAVEAQAADVLELLLRAGANPAARMYGGRTPLGSAMLRPNPILARLLRAHGAPEPEGEDEKSGPCSSSSDSDSGDEGDEYDDIVVHSSRSQTRLPPTPASKPLPDDPRPV
B9: ATF2 (protein, UniProt P16951 1-487, looked up)
Cyclic AMP-dependent …: MSDDKPFLCTAPGCGQRFTNEDHLAVHKHKHEMTLKFGPARNDSVIVADQTPTPTRFLKNCEEVGLFNELASPFENEFKKASEDDIKKMPLDLSPLATPIIRSKIEEPSVVETTHQDSPLPHPESTTSDEKEVPLAQTAQPTSAIVRPASLQVPNVLLTSSDSSVIIQQAVPSPTSSTVITQAPSSNRPIVPVPGPFPLLLHLPNGQTMPVAIPASITSSNVHVPAAVPLVRPVTMVPSVPGIPGPSSPQPVQSEAKMRLKAALTQQHPPVTNGDTVKGHGSGLVRTQSEESRPQSLQQPATSTTETPASPAHTTPQTQNTSGRRRRAANEDPDEKRRKFLERNRAAASRCRQKRKVWVQSLEKKAEDLSSLNGQLQSEVTLLRNEVAQLKQLLLAHKDCPVTAMQKKSGYHTADKDDSSEDLSVPSSPHTEAIQHSSVSTSNGVSSTSKAEAVATSVLTQMADQSTEPALSQIVMAPPSQAQPSGS
B10: NFKB2 (protein, UniProt Q00653 1-900, looked up)
Nuclear factor NF-kappa-B …: MESCYNPGLDGIIEYDDFKLNSSIVEPKEPAPETADGPYLVIVEQPKQRGFRFRYGCEGPSHGGLPGASSEKGRKTYPTVKICNYEGPAKIEVDLVTHSDPPRAHAHSLVGKQCSELGICAVSVGPKDMTAQFNNLGVLHVTKKNMMGTMIQKLQRQRLRSRPQGLTEAEQRELEQEAKELKKVMDLSIVRLRFSAFLRASDGSFSLPLKPVISQPIHDSKSPGASNLKISRMDKTAGSVRGGDEVYLLCDKVQKDDIEVRFYEDDENGWQAFGDFSPTDVHKQYAIVFRTPPYHKMKIERPVTVFLQLKRKRGGDVSDSKQFTYYPLVEDKEEVQRKRRKALPTFSQPFGGGSHMGGGSGGAAGGYGGAGGGGSLGFFPSSLAYSPYQSGAGPMGCYPGGGGGAQMAATVPSRDSGEEAAEPSAPSRTPQCEPQAPEMLQRAREYNARLFGLAQRSARALLDYGVTADARALLAGQRHLLTAQDENGDTPLHLAIIHGQTSVIEQIVYVIHHAQDLGVVNLTNHLHQTPLHLAVITGQTSVVSFLLRVGADPALLDRHGDSAMHLALRAGAGAPELLRALLQSGAPAVPQLLHMPDFEGLYPVHLAVRARSPECLDLLVDSGAEVEATERQGGRTALHLATEMEELGLVTHLVTKLRANVNARTFAGNTPLHLAAGLGYPTLTRLLLKAGADIHAENEEPLCPLPSPPTSDSDSDSEGPEKDTRSSFRGHTPLDLTCSTKVKTLLLNAAQNTMEPPLTPPSPAGPGLSLGDTALQNLEQLLDGPEAQGSWAELAERLGLRSLVDTYRQTTSPSGSLLRSYELAGGDLAGLLEALSDMGLEEGVRLLRGPETRDKLPSTAEVKEDSAYGSQSVEQEAEKLGPPPEPPGGLCHGHPQPQVH

Test system: HEK293FT cells transfected with TF library
Experiment: Screening of TF condensates based on fluorescent puncta
Type: cell-based
Conditions: Figure 1B numerical data; TF library screen, one value per transcriptional factor
Summary of the method: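 Cells were seeded onto plasmid/PEI-loaded wells (plasmid 1.6 μg/ml final) and grown 60 h. Medium with or without glucose followed for 12 h. Fixed, permeabilized cells were stained against Flag or GAL4 tags, and condensate puncta were quantified from 50 random fields per well.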

Row | Molecule | Z score of condensed fraction
1 | B1 | -0.245
2 | B2 | -0.6996
3 | B3 | 0.298
4 | B4 | 1.376
5 | B5 | -1.044
6 | B6 | -0.5752
7 | B7 | -0.7003
8 | B8 | 1.097
9 | B9 | 2.014
10 | B10 | 0.04386

Reference: article PMC11574045, “A cofactor-induced repressive type of transcription factor condensation can be induced by synthetic peptides to suppress tumorigenesis” (The EMBO Journal, 2024)
